Experimental data from patent publication US20250003958A1.

Experiments:
[1] = target: CD8 on CD8-positive cells (PBMCs in Example 1, Immuno-Trol cells in Example 3) (UniProt P01732); assay: negative control; magnetic bead depletion of Immuno-Trol cells, flow cytometry of the supernatant (41% before addition of beads)
[2] = target: CD8 on CD8-positive cells (PBMCs in Example 1, Immuno-Trol cells in Example 3) (UniProt P01732); assay: negative control; magnetic bead depletion of Immuno-Trol cells, flow cytometry of the supernatant (59% before addition of beads)
[3] = target: CD4 on CD4-positive cells (PBMCs) (UniProt P01730); assay: negative control; cells trapped by beads, released with DNase I, flow cytometry
[4] = target: CD8 on CD8-positive cells (PBMCs in Example 1, Immuno-Trol cells in Example 3) (UniProt P01732); assay: as above
[5] = target: CD4 on CD4-positive cells (PBMCs) (UniProt P01730); assay: negative control; magnetic bead depletion of PBMCs, flow cytometry of the supernatant (82% before addition of beads)
[6] = target: CD4 on CD4-positive cells (PBMCs) (UniProt P01730); assay: negative control; magnetic bead depletion of PBMCs, flow cytometry of the supernatant (18% before addition of beads)
[7] = target: CD8 on CD8-positive cells (PBMCs in Example 1, Immuno-Trol cells in Example 3) (UniProt P01732); assay: negative control; magnetic bead depletion of PBMCs, flow cytometry of the supernatant (28% before addition of beads)
[8] = target: CD8 on CD8-positive cells (PBMCs in Example 1, Immuno-Trol cells in Example 3) (UniProt P01732); assay: negative control; magnetic bead depletion of PBMCs, flow cytometry of the supernatant (72% before addition of beads)

Chain of UniProt P01732 (P01732 22-235): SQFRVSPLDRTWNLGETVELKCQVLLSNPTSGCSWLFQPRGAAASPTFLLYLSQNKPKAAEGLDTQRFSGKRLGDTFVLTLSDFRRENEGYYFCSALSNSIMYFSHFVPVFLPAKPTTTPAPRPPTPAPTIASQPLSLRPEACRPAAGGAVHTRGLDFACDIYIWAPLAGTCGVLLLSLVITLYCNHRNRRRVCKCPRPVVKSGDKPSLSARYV

Ratio of CD3-positive and CD4-negative cells remaining in the supernatant [1] [%] | Ratio of CD3-positive and CD4-positive cells remaining in the supernatant [2] [%] | Ratio of FITC-positive cells [3] [%] | Ratio of FITC-positive cells [4] [%] | Ratio of CD3-positive and CD8-negative cells remaining in the supernatant [5] [%] | Ratio of CD3-positive and CD8-positive cells remaining in the supernatant [6] [%] | Ratio of CD3-positive and CD4-negative cells remaining in the supernatant [7] [%] | Ratio of CD3-positive and CD4-positive cells remaining in the supernatant [8] [%] | Substance
39 | 61 | – | – | – | – | – | – | Control antibody (Biolegend), held on streptavidin magnetic beads through oligo-DNA-modified Protein A/G
– | – | 26 | 19 | 81 | 19 | 33 | 67 | Isotype Control antibody (Biolegend), modified with FITC-introduced synthetic oligo-DNA linker and immobilized on streptavidin magnetic beads
